Experimental data as given in publication PMC11054337 (2024).

Columns and labels:
[1] = target: T1, galactokinase PTS1 peptide (Leishmania donovani); test: fluorescence polarization
[2] = target: T2, phosphofructokinase PTS1 peptide (Leishmania donovani); test: fluorescence polarization
[3] = target: T3, xanthine phosphoribosyltransferase PTS1 peptide (Leishmania donovani); test: fluorescence polarization
[4] = target: T1, galactokinase PTS1 peptide; test: fluorescence polarization competition
[5] = target: T2, phosphofructokinase PTS1 peptide; test: fluorescence polarization competition
[6] = target: T3, xanthine phosphoribosyltransferase PTS1 …; test: fluorescence polarization competition

B1: PEX5 303-625 (protein)
chain: RLQKVTNSTDYPFEPNNPYMFHDFPFDEGMEMLQLGNLAEAALAFEAVCHKDSSNEKAWQILGTTQAENEKDGLAIIALNNARKLNPRNLEVHAALSVSHTNERNADAAMDSLKAWLVNHPEYEQLASVSIPPNAELDVQETFFFADPSRMREARTLYEAAIEMNPSDSQLFTNLGVLHNVAHEFDEAAECFRKAVALHPDDPKMWNKLGATLANGGHPDQALEAYNRALDINPGYVRAMYNMAVAYSNMSQYNMAARQIVKAIASQQGGTKPSGEGSIMATRNMWDLLRMTLNLMDRDDLVQLTYNEQLEPFVKEFGLEGHV
For B1, the Kd [1] was 382 nM, the Kd [2] was 102 nM and the Kd [3] was 78 nM. For the same binder, the IC50 [4] was 10600 nM, the IC50 [5] was over 60000 nM and the IC50 [6] was 3610 nM.
